Experimental data taken from patent US20220380430A1 (WORCESTER POLYTECHNIC INSTITUTE, published 2022).
No end group written: not given here.

B1: FLP-3-4 (NPLGTMRFamide) (peptide)
peptide: NPLGTMRF-NH2
B2: FLP-3-9 (NPENDTPFGTMRFamide) (peptide)
peptide: NPENDTPFGTMRF-NH2
B3: FLP-3-3 (EAEEPLGTMRFamide) (peptide)
peptide: EAEEPLGTMRF-NH2
B4: FLP-3-5 (ASEDALFGTMRFamide) (peptide)
peptide: ASEDALFGTMRF-NH2
B5: FLP-3-8 (SADDSAPFGTMRFamide) (peptide)
peptide: SADDSAPFGTMRF-NH2
B6: FLP-3-1 (SPLGTMRFamide) (peptide)
peptide: SPLGTMRF-NH2
B7: FLP-3-2 (TPLGTMRFamide) (peptide)
peptide: TPLGTMRF-NH2
B8: FLP-3-7 (SAEPFGTMRFamide) (peptide)
peptide: SAEPFGTMRF-NH2

Tests used:
NPR-10B = NPR-10B (C. elegans); test: cell-based or functional assay
FRPR-16 = FRPR-16 (C. elegans); test: cell-based or functional assay

EC50 of receptor activation (aequorin calcium luminescence, transfected CHO-K1/Galpha16 cells) (NPR-10B) [nM]	EC50 of receptor activation (aequorin calcium luminescence, transfected CHO-K1/Galpha16 cells) (FRPR-16) [nM]	Binder
427	10.7	B1
760	88.3	B2
867	288	B3
1100	72.1	B4
–	1600	B5
262	7.4	B6
366	31.7	B7
439	39.5	B8
